Reference: US20100297726A1 (AMANO ENZYME, published 2010)

T1: mature transglutaminase (Streptomyces mobaraensis strain No. 140226) (Streptomyces mobaraensis, UniProt P81453 77-407)
T1 construct: Natural enzyme from the culture solution; also called mature TGase; M-TGase
T1 sequence: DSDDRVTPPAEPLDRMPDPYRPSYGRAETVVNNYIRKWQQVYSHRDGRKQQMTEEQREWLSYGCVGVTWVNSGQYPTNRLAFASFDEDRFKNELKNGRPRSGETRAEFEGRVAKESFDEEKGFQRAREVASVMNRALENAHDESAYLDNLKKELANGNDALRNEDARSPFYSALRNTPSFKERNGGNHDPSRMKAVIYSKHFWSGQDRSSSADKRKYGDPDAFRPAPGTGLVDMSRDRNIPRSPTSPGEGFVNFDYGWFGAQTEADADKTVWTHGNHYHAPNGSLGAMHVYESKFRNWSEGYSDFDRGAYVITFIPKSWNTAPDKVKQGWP


Target: T1, mature transglutaminase (Streptomyces …)
Assay: gel filtration (Sephacryl S-100), elution patterns with and without SDS
Experimental: On the other hand, ammonium sulfate was added to the recovered supernatant until the concentration of saturated solution was achieved, and precipitates were recovered. The recovered precipitates were dissolved in 20 mM phosphate buffer solution (KPB; pH 7.2), and then dialyzed against the same buffer solution. Next, ammonium sulfate was added to the dialysate so that 1.7 M ammonium sulfate was obtained, which was subjected to Phenyl-Sepharose 6 Fast Flow equilibrated with 20 mM phosphate buffer solution (KPB; pH 7.2) containing 1.7 M ammonium sulfate, washed with 1.7 M ammonium sulfate, and eluted with 1.0 M ammonium sulfate. Thus, the target stabilized TGase (P-TGase) was eluted in the eluted fraction. The specific activity of the thus obtained P-TGase (u/Abs 280 nm) was 7.9. The elution patterns of gel filtration (Sephacryl S-100) was compared between the case in which SDS (sodium dodecyl sulfate) was added and the case in which SDS was not added.

binding result | Binder
binds | DNGAGEETKSYAETYRLTADDVANINALNESAPAA (Recovered from P-TGase of Streptomyces mobaraensis strain No. 140226 after SDS treatment and gel filtration; One of three peptide species found in the P-TGase preparation) [pro-sequence peptide of transglutaminase (1) DNGAGEETKSYAETYRLTADDVANINALNESAPAA]
binds | DNGAGEETKSYAETYRLTADDVANINALNESAPAASS (Recovered from P-TGase of Streptomyces mobaraensis strain No. 140226 after SDS treatment and gel filtration) [pro-sequence peptide of transglutaminase (3) DNGAGEETKSYAETYRLTADDVANINALNESAPAASS]
binds | DNGAGEETKSYAETYRLTADDVANINALNESAPAAS (Recovered from P-TGase of Streptomyces mobaraensis strain No. 140226 after SDS treatment and gel filtration) [pro-sequence peptide of transglutaminase (2) DNGAGEETKSYAETYRLTADDVANINALNESAPAAS]
